Experiments:
[1] = target: IgE of pooled serum samples (human); assay: cross-inhibition ELISA; inhibitor 1 ug/ml with pooled sera; C. idella parvalbumin on the plate
[2] = target: IgE of pooled serum samples (human); assay: cross-inhibition ELISA; inhibitor 50 ug/ml with pooled sera; C. idella parvalbumin on the plate
[3] = target: IgE of pooled serum samples (human); assay: cross-inhibition ELISA; C. idella parvalbumin on the plate; inhibitor concentration not stated

B1: recombinant cod allergen Gad m 1 (cod parvalbumin) (protein, UniProt Q90YK9 1-109, looked up, not shown: small tags and cut ends)
chain: MAFAGILNDADITAALAACKAEGSFDHKAFFTKVGLAAKSPADIKKVFEIIDQDKSDFVEEDELKLFLQNFSAGARALSDAETKVFLKAGDSDGDGKIGVDEFGAMIKA
In the case of B1, the % inhibition of IgE binding [1] is reported as 40% and the % inhibition of IgE binding [2] is reported as 50%.

B2: recombinant aldolase A of grass carp Ctenopharyngodon idella (enzyme, not shown: small tags and cut ends)
chain: MPHAYPFLTPEQKKELSDIALRIVAPGKGILAADESTGSVAKRFQSINAENTEENRRLYRQLLFTADDRVKPCIGGVILFHETLYQKADDGKLFSQLLKERGMVVGIKVDKGVVPLAGTNGETTTQGLDGLYERCAQYKKDGADFAKWRCVLKITSTTPSRLAIIENANVLARYASICQMHGIVPIVEPEILPDGDHDLKRCQYVTEKVLAAVYKALSDHHVYLEGTLLKPNMVTAGHSCSQKNTPQEIAMATVTALRRTVPPAVPGITFLSGGQSEEEATLNLNAMNKCPLHRPWALTFSYGRALQASALKAWGGKKENGKACQEEFIKRALNNSLACVGKYVSSGDKGAAAGESLFVANHAY
B2 was tested, and the % inhibition of IgE binding [3] was 10%.

Source: patent US20200191797A1
